According to PMC10942606 (eLife, 2023):
Read-outs that look alike come from different tables or passages of the source. Values belong to the binder of their own block, whether it stands above or below them.

B2: Pcf1 (large subunit of SpCAF-1) (natural protein, S. pombe, UniProt Q1MTN9 1-544, looked up)
chain: MNSESVDSDVAASTSNKGNELCSSSTDITSLSVSSPNESVIHSSHSASEADEYVCKLSYEGNRKKRIYNGSAEAGKEKKLQKQRAQEERIRQKEAERLKREKERQQREQEKKLREQEKIAAKKMKELEKLEKERIRLQEQQRRKEERDQKLREKEEAQRLRQEQILNKERQQLKLNNFFTKGVEKRIAPNENFVADKTDELNEFEKEFRPFFIKHQMSLSKYPSPNESDSFLDEVLSTSKSYPLKLNDIFTPSDAVSSANSLGVSNRNSENEVRQLMSAYQDPSVSKPQEILSCLSQIPIKFIFFYQDVRPPYFGSYTKTHSHGSNVLLNPWLEDEDIDYTYDSEAEWVADEEDDGEDLESEDEEVDNSDDIVEDGDNAFVDDEDDDKDSVNASNTHRSSGPLEVIVEGPVWDSKFLPDFNCLSLIEPISSFSASTYLQIDPKEDLWASQDTAPASSGMTIGPTSSLSDDLQVRFPSEDIPKFIEYVRNSHDNKVFLIENLRHMFPYVTKNIISETLGKVAVRKGKSVSDGWIIKENFASLLSS
B4: SpPCNA (recombinant S. pombe PCNA) (natural protein, UniProt Q03392 1-260, looked up)
chain: MLEARFQQAALLKKLLDAIKELVTDANFDCNDNGISLQAMDSSHVALVSMLIKSDGFEPYRCDRNIALGINLNALSKVLRCAQNEDLVTLKAEDTPEVLNLVFESEKNDRISDYDVKLMDIDQEHLGIPDIEYDATITMPAAEFQRITRDLLTLSDSVTINASKEGVRFSCKGDIGNGSTTLKQHTDLSDQDQSIEISLTQAVTLTFSLKYLAQFTKATPLATRVTLSMSNDVPLLVEYKMESGFLRFYLAPKIGEEDEE

How the values were obtained:
[1] = target: B2; assay: SEC-SAXS
[2] = target: T1, S. pombe histones H3−H4 (S. pombe, UniProt P09988 1-136; P09322 1-103); assay: NMR titration
[3] = target: the molecule itself; assay: SEC
[4] = target: SpCAF-1 complex (Pcf1-Pcf2-Pcf3), wild type, full length (S. pombe, UniProt Q1MTN9 1-544; O13985 1-512; Q9Y825 1-408); assay: native gel or EMSA
[5] = target: FLAG-Pcf1-ED* (expressed from the endogenous pcf1 gene) (S. pombe, UniProt Q1MTN9 1-544, Y340A | W348A); assay: co-IP
[6] = target: T1, S. pombe histones H3−H4; assay: NMR titration; remark: listed apart in the source
[7] = target: B4; assay: ITC

- stoichiometry N [1]: 1
B1: Pcf3 (small subunit of SpCAF-1) (natural protein, S. pombe, UniProt Q9Y825 1-408, looked up)
chain: MNTELDMQNFEHIKFLENQISEDHFRWKKNSKHLYNLLITRTLTWPSLSIQWLSAMESITEKAVLKNRLLLGTHAAEGMPNFLQLADLDLPDFNQTILDPVKHYNEDTGELGGYSMQHSCKFQISQRILHNGDVNRVRHMPQNPNIIATMSSCGNAYIFDRTKYTSMPAEEFLPNISLIGHKKEGFGLSWNRQQNCRLVTAANDSKILEWDLNNFSRDTRCLTPVKDFHYDDSPVNDVEYHPHHTNLYIAVNDNGIAFICDNRLQQTCSKTVKASNPLFSVRHNPSIATLFALGSEQDLQLWDLRNLNKSVFNTSEDLSDNRLKVPSRLTLGGTSLSWSWRHSGRIVSACQEYCYVWNFNKANPLEFVHAGHKGTVNEVDFDPFEAQCIASVADDNELHIWKPNVIVN

Binder: B2
- binding result [2]: binds
- binding result [3]: binds

- binding result [2]: binds
B3: SpCAF-1-KER* complex (Pcf1 R147E-K150E-K154E-R161E-K168E, Pcf2, Pcf3) (complex, S. pombe)
chain 1: MNSESVDSDVAASTSNKGNELCSSSTDITSLSVSSPNESVIHSSHSASEADEYVCKLSYEGNRKKRIYNGSAEAGKEKKLQKQRAQEERIRQKEAERLKREKERQQREQEKKLREQEKIAAKKMKELEKLEKERIRLQEQQRRKEEEDQELREEEEAQRLEQEQILNEERQQLKLNNFFTKGVEKRIAPNENFVADKTDELNEFEKEFRPFFIKHQMSLSKYPSPNESDSFLDEVLSTSKSYPLKLNDIFTPSDAVSSANSLGVSNRNSENEVRQLMSAYQDPSVSKPQEILSCLSQIPIKFIFFYQDVRPPYFGSYTKTHSHGSNVLLNPWLEDEDIDYTYDSEAEWVADEEDDGEDLESEDEEVDNSDDIVEDGDNAFVDDEDDDKDSVNASNTHRSSGPLEVIVEGPVWDSKFLPDFNCLSLIEPISSFSASTYLQIDPKEDLWASQDTAPASSGMTIGPTSSLSDDLQVRFPSEDIPKFIEYVRNSHDNKVFLIENLRHMFPYVTKNIISETLGKVAVRKGKSVSDGWIIKENFASLLSS
chain 2: MRAEVLQIRWHYDANDDHTPIYSVDFQKNSLNKFATCGGDSKIRIWQLITSESSTKVEYLSTLSRHTQAVNVVRFNPEGNILATAGDEGTIMLWVPTNTPITTLADDAEELALAKEYWKVKIVCRSMGSEIYDLCWSVDSNFLIAGAMDNSLRLYDAHTGQLLTQKFDHSHYVQGVCWDPLNQYIVSESSDRSICLYEIQEEKKNPKKFQLVLKSRICRIEYNVTKFELISVTKPLNNDESSGISEPIETSNNNESPVSKHEALSSTANIVKDGSLERTEPPNSLNSKISYSLYCNETLVSFFRRPAFSPDGLLLVTPAGRLRPHGQPNFEVPYTAYIYTRGSITKQPVACLNGFKKPVIAVRFSPIHYELNSFSNFSFTSVSFNLPYRMVFAVACQDAVYIYDTQTCKPFYRAVNLHYSNLTDIAWNDDGNVLLMTSIDGFCSVITFEPGELGVKSQHKISLPEKRSASPSSIDDSQDNTAGGPATTTLIPRKVESSKVSKKRIAPTPVYP
chain 3: MNTELDMQNFEHIKFLENQISEDHFRWKKNSKHLYNLLITRTLTWPSLSIQWLSAMESITEKAVLKNRLLLGTHAAEGMPNFLQLADLDLPDFNQTILDPVKHYNEDTGELGGYSMQHSCKFQISQRILHNGDVNRVRHMPQNPNIIATMSSCGNAYIFDRTKYTSMPAEEFLPNISLIGHKKEGFGLSWNRQQNCRLVTAANDSKILEWDLNNFSRDTRCLTPVKDFHYDDSPVNDVEYHPHHTNLYIAVNDNGIAFICDNRLQQTCSKTVKASNPLFSVRHNPSIATLFALGSEQDLQLWDLRNLNKSVFNTSEDLSDNRLKVPSRLTLGGTSLSWSWRHSGRIVSACQEYCYVWNFNKANPLEFVHAGHKGTVNEVDFDPFEAQCIASVADDNELHIWKPNVIVN

Binder: B4
- binding result [4]: binds

- fold change of bound PCNA against WT Pcf1 [5]: 8 fold of WT Pcf1
B5: PCNA (endogenous, S. pombe) (natural protein, S. pombe (endogenous in S. pombe), UniProt Q03392 1-260, looked up)
chain: MLEARFQQAALLKKLLDAIKELVTDANFDCNDNGISLQAMDSSHVALVSMLIKSDGFEPYRCDRNIALGINLNALSKVLRCAQNEDLVTLKAEDTPEVLNLVFESEKNDRISDYDVKLMDIDQEHLGIPDIEYDATITMPAAEFQRITRDLLTLSDSVTINASKEGVRFSCKGDIGNGSTTLKQHTDLSDQDQSIEISLTQAVTLTFSLKYLAQFTKATPLATRVTLSMSNDVPLLVEYKMESGFLRFYLAPKIGEEDEE

- stoichiometry N [1]: 1
B6: Pcf2 (medium subunit of SpCAF-1) (natural protein, S. pombe, UniProt O13985 1-512, looked up)
chain: MRAEVLQIRWHYDANDDHTPIYSVDFQKNSLNKFATCGGDSKIRIWQLITSESSTKVEYLSTLSRHTQAVNVVRFNPEGNILATAGDEGTIMLWVPTNTPITTLADDAEELALAKEYWKVKIVCRSMGSEIYDLCWSVDSNFLIAGAMDNSLRLYDAHTGQLLTQKFDHSHYVQGVCWDPLNQYIVSESSDRSICLYEIQEEKKNPKKFQLVLKSRICRIEYNVTKFELISVTKPLNNDESSGISEPIETSNNNESPVSKHEALSSTANIVKDGSLERTEPPNSLNSKISYSLYCNETLVSFFRRPAFSPDGLLLVTPAGRLRPHGQPNFEVPYTAYIYTRGSITKQPVACLNGFKKPVIAVRFSPIHYELNSFSNFSFTSVSFNLPYRMVFAVACQDAVYIYDTQTCKPFYRAVNLHYSNLTDIAWNDDGNVLLMTSIDGFCSVITFEPGELGVKSQHKISLPEKRSASPSSIDDSQDNTAGGPATTTLIPRKVESSKVSKKRIAPTPVYP

- binding result [6]: binds
B7: Pcf1_ED (325-396) (domain or fragment, S. pombe, UniProt Q1MTN9 325-396, looked up)
chain: SNVLLNPWLEDEDIDYTYDSEAEWVADEEDDGEDLESEDEEVDNSDDIVEDGDNAFVDDEDDDKDSVNASNT

- Kd [7]: 0.7 ± 0.2 µM
- dH [7]: 2.9 ± 0.6 kCal.M^–1
- stoichiometry N [7]: 0.64 ± 0.04
B8: Pcf1_KER-PIP (56-185) (domain or fragment, S. pombe, UniProt Q1MTN9 56-185, looked up)
chain: KLSYEGNRKKRIYNGSAEAGKEKKLQKQRAQEERIRQKEAERLKREKERQQREQEKKLREQEKIAAKKMKELEKLEKERIRLQEQQRRKEERDQKLREKEEAQRLRQEQILNKERQQLKLNNFFTKGVEK

- Kd [7]: 7.1 ± 1.5 µM
- dH [7]: 1 ± 0.5 kCal.M^–1
- stoichiometry N [7]: 0.7 ± 0.2
B9: Pcf1_KER*-PIP (56-185, R147E-K150E-K154E-R161E-K168E) (domain or fragment, S. pombe, UniProt Q1MTN9 56-185, looked up)
chain: KLSYEGNRKKRIYNGSAEAGKEKKLQKQRAQEERIRQKEAERLKREKERQQREQEKKLREQEKIAAKKMKELEKLEKERIRLQEQQRRKEEEDQELREEEEAQRLEQEQILNEERQQLKLNNFFTKGVEK
